test system: Escherichia coli TOP10; experiment: shrunken log2 fold change of peptide-encoding DNA abundance (4.5 h post-induction vs induction); higher = less antimicrobial activity (less host growth inhibition); conditions: time post-induction: 4.5 h; library: site-saturation at positions 5, 18, 19, 20
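Also: peptides expressed intracellularly from a pBAD plasmid library in pooled LB shake-flask culture, induced with 0.3% L-arabinose, DNA abundance read by NGS, three biological replicates, DESeq2 with apeglm shrinkage.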

| Sequence | shrunken log2 fold change |
| --- | --- |
| RRIRPRPPRLPRPRPRPGTIPRP | -0.171 |
| RRIRLRPPRLPRPRPRPEFGPRP | 0.07 |
| RRIRRRPPRLPRPRPRPNAHPRP | 0.0582 |
| RRIRYRPPRLPRPRPRPNHQPRP | -0.573 |
| RRIRARPPRLPRPRPRPEDWPRP | 1.63 |
| RRIRVRPPRLPRPRPRPLSQPRP | -0.032 |
| RRIRGRPPRLPRPRPRPYKCPRP | -0.00955 |
| RRIRGRPPRLPRPRPRPFQAPRP | 0.112 |
| RRIRIRPPRLPRPRPRPPTKPRP | 0.126 |
| RRIRGRPPRLPRPRPRPAVMPRP | 0.946 |
| RRIRFRPPRLPRPRPRPNNVPRP | -0.179 |
| RRIRMRPPRLPRPRPRPREDPRP | 0.0544 |
| RRIRSRPPRLPRPRPRPVSDPRP | 0.32 |
| RRIRARPPRLPRPRPRPAIAPRP | 0.547 |
| RRIRKRPPRLPRPRPRPLLTPRP | 0.652 |
| RRIRDRPPRLPRPRPRPTWRPRP | 0.756 |
| RRIRLRPPRLPRPRPRPTYQPRP | -0.229 |
| RRIRKRPPRLPRPRPRPPQSPRP | 0.863 |
| RRIRFRPPRLPRPRPRPTGEPRP | 0.583 |
| RRIRVRPPRLPRPRPRPYYCPRP | -0.513 |
| RRIRGRPPRLPRPRPRPAYWPRP | -0.0674 |
| RRIRVRPPRLPRPRPRPPWHPRP | 0.164 |

| Sequence | shrunken log2 fold change |
| --- | --- |
| RRIRCRPPRLPRPRPRPIEYPRP | -0.148 |
| RRIRARPPRLPRPRPRPDKIPRP | 0.299 |
| RRIRTRPPRLPRPRPRPELTPRP | 0.0104 |
| RRIRNRPPRLPRPRPRPNAIPRP | -0.0211 |
| RRIRNRPPRLPRPRPRPKDDPRP | 0.0456 |
| RRIRFRPPRLPRPRPRPCNMPRP | -1.46 |
| RRIRQRPPRLPRPRPRPWSSPRP | -0.0435 |
| RRIRGRPPRLPRPRPRPLFIPRP | -0.234 |
| RRIRNRPPRLPRPRPRPAWEPRP | 0.247 |
| RRIRLRPPRLPRPRPRPYLRPRP | -0.132 |
| RRIRCRPPRLPRPRPRPSFLPRP | -0.718 |
| RRIRPRPPRLPRPRPRPMITPRP | -0.407 |
| RRIRKRPPRLPRPRPRPVHDPRP | 0.0707 |
| RRIRMRPPRLPRPRPRPYIMPRP | -0.12 |
| RRIRHRPPRLPRPRPRPWPLPRP | -0.306 |
| RRIRTRPPRLPRPRPRPLDLPRP | 0.0209 |
| RRIRPRPPRLPRPRPRPHEVPRP | -0.0664 |
| RRIRARPPRLPRPRPRPMWAPRP | 0.557 |
| RRIRQRPPRLPRPRPRPLWSPRP | -0.147 |
| RRIRVRPPRLPRPRPRPPCAPRP | 0.238 |
| RRIRYRPPRLPRPRPRPLDQPRP | -0.169 |
| RRIRERPPRLPRPRPRPCDGPRP | 0.142 |

| Sequence | shrunken log2 fold change |
| --- | --- |
| RRIRKRPPRLPRPRPRPECTPRP | 3.42 |
| RRIRVRPPRLPRPRPRPSPHPRP | -0.571 |
| RRIRRRPPRLPRPRPRPEHGPRP | 0.0177 |
| RRIRARPPRLPRPRPRPYIMPRP | -0.675 |
| RRIRSRPPRLPRPRPRPCGVPRP | 0.0491 |
| RRIRRRPPRLPRPRPRPQWHPRP | 0.181 |
| RRIRWRPPRLPRPRPRPMSKPRP | -0.133 |
| RRIRHRPPRLPRPRPRPRHLPRP | 0.184 |
| RRIRARPPRLPRPRPRPCKTPRP | 0.107 |
| RRIRHRPPRLPRPRPRPMPFPRP | 0.0462 |
| RRIRWRPPRLPRPRPRPQGFPRP | -0.0818 |
| RRIRNRPPRLPRPRPRPFRWPRP | 0.0512 |
| RRIRVRPPRLPRPRPRPMPCPRP | 0.118 |
| RRIRDRPPRLPRPRPRPDNFPRP | 0.0301 |
| RRIRARPPRLPRPRPRPCPYPRP | -0.359 |
| RRIRCRPPRLPRPRPRPCNCPRP | -0.278 |
| RRIRRRPPRLPRPRPRPTEMPRP | 0.477 |
| RRIRPRPPRLPRPRPRPRPEPRP | 0.373 |
| RRIRNRPPRLPRPRPRPDKDPRP | -0.253 |
| RRIRFRPPRLPRPRPRPLTNPRP | 0.0389 |
| RRIRNRPPRLPRPRPRPSSLPRP | -0.333 |
| RRIRTRPPRLPRPRPRPSVPPRP | -0.0459 |

| Sequence | shrunken log2 fold change |
| --- | --- |
| RRIRGRPPRLPRPRPRPLVAPRP | 1.16 |
| RRIRSRPPRLPRPRPRPEYNPRP | -0.229 |
| RRIRSRPPRLPRPRPRPVKIPRP | -0.131 |
| RRIRIRPPRLPRPRPRPPWLPRP | 0.412 |
| RRIRLRPPRLPRPRPRPDNQPRP | -0.889 |
| RRIRARPPRLPRPRPRPVDIPRP | 0.135 |
| RRIRKRPPRLPRPRPRPVFCPRP | -0.126 |
| RRIRPRPPRLPRPRPRPYIGPRP | -0.184 |
| RRIRDRPPRLPRPRPRPHWVPRP | 0.0635 |
| RRIRVRPPRLPRPRPRPQCHPRP | -0.0451 |
| RRIRTRPPRLPRPRPRPKKSPRP | -0.106 |
| RRIRWRPPRLPRPRPRPIVDPRP | -0.0254 |
| RRIRGRPPRLPRPRPRPCCSPRP | 0.107 |
| RRIRNRPPRLPRPRPRPEVRPRP | 0.292 |
| RRIRDRPPRLPRPRPRPVMTPRP | 0.374 |
| RRIRKRPPRLPRPRPRPEHWPRP | 0.428 |
| RRIRLRPPRLPRPRPRPKFRPRP | -0.0412 |
| RRIRVRPPRLPRPRPRPMSQPRP | -0.296 |
| RRIRRRPPRLPRPRPRPVKTPRP | 0.05 |
| RRIRHRPPRLPRPRPRPHLGPRP | 0.0478 |
| RRIRCRPPRLPRPRPRPMRCPRP | 0.404 |
| RRIRPRPPRLPRPRPRPFRTPRP | -0.362 |

| Sequence | shrunken log2 fold change |
| --- | --- |
| RRIRVRPPRLPRPRPRPVDCPRP | 0.014 |
| RRIRGRPPRLPRPRPRPMAKPRP | 0.658 |
| RRIRHRPPRLPRPRPRPDAGPRP | -0.0143 |
| RRIRGRPPRLPRPRPRPEVDPRP | 1.84 |
| RRIRLRPPRLPRPRPRPQNAPRP | 0.223 |
| RRIRKRPPRLPRPRPRPDAHPRP | 0.534 |
| RRIRTRPPRLPRPRPRPELHPRP | 0.396 |
| RRIRFRPPRLPRPRPRPSTVPRP | -0.325 |
| RRIRKRPPRLPRPRPRPMMWPRP | 0.373 |
| RRIRTRPPRLPRPRPRPHYFPRP | -0.914 |
| RRIRARPPRLPRPRPRPQEHPRP | 0.515 |
| RRIRWRPPRLPRPRPRPACEPRP | 0.11 |
| RRIRYRPPRLPRPRPRPARRPRP | 0.234 |
| RRIRRRPPRLPRPRPRPQFNPRP | -0.323 |
| RRIRYRPPRLPRPRPRPYLDPRP | 0.0821 |
| RRIRVRPPRLPRPRPRPPYTPRP | -0.268 |
| RRIRRRPPRLPRPRPRPMMSPRP | 0.0352 |
| RRIRGRPPRLPRPRPRPNRIPRP | 0.281 |
| RRIRYRPPRLPRPRPRPIVDPRP | -0.268 |
| RRIRGRPPRLPRPRPRPGWVPRP | 0.892 |
| RRIRQRPPRLPRPRPRPMWMPRP | 0.0583 |

Reference: the supplement of paper PMC9112550, “Optimization of the antimicrobial peptide Bac7 by deep mutational scanning” (BMC Biology, 2022)
